Experimental data taken from the DeepSol protein solubility set.

assay: soluble on expression in E. coli; label from the status in PepcDB or PDB records

Row | Sequence | soluble on expression in E. coli
1 | MAKGIPYGISDFSRLIDQNYYYVDKTHFIPQIEEIANYLFLIRPRRFGKSVFLTMMRAYYDISQKDRFEERFGNLWIGKHPTPLQGIYQVLYFDFSKANLGRGSLEDNFNNYCCIQLNDFFSTYREYYQGEKELEQIIASTEAATKLHWLEATARRLGHLLYLIIDEYDNFTNVILSEQGKNLFRDLTHASGFYREYFKQFKGMFERIFLMGVSPVTLDDLSSGYNIDWNISVDPHFNMMMGFSETDVREMFGYYQKEGMLKGDIDAMINEMKPWYDNYCFAEASLKTDPRMFNCDMTLYYLRHRVNFDASPKELIDKNIRTDYSKLKMLARLDHENVSGEDRMSTIEEIAAKGEILVNLHTSFPAEKIVETDNFRSLLYYYGLLTMCGTRGDRIVMCIPNNCVREQYFGFLREYYQQRKEVFLPHLKDLIDDMAFDGQWRPLFEYIALAYKENSAIRDAIEGEHNLQGFFKAYLALASYYLVQPELEMNYGYCDFFLLPDKSRYPDTAHSYILELKYLPRTATDKELEEQAEEGRGQLKQYSRDKKVTTISEGTALHCILLQFKGWELIKCEEVSPKC | not soluble
2 | MAKHAPQLPIEVDSETGVWTTDALPMLYVPRHFFVNNHMGIEEVLGADAYAEILYKAGYKSAWHWCEKEAECHGLEGVAVFEHYMKRLSQRGWGLFEIERINLEEGTAEVRLRHSAFVYVYGKVNRKVDYMFTGWFAGAMDQILAARGSSLRTVAEQVYSGAEDGHEDGLFVVKPL | soluble
3 | MAKIKLPIVTINAKGGAQYVVEGVEAVNALTQLENYPERGIRIKVDGKMTVITEGCLCSAAVTGEVEVDVPEIVCEEVECEPISNILPNPKNPTDPGENSKPEEKAGEK | not soluble
4 | MAKIPVLEIFGPTIQGEGRVIGRKTMFVRTAGCDYRCSWCDSAFTWDGSAKEDIKLMTAEEIYDALLEIGGHRFNHVTISGGNPALIKGIQELVDLFEDKHIYTALETQGSRFQSWMTQIDDLTISPKPPSSGMKTNLEILDSVINQCTFHSLNLKVVIFDDADYDFAKLIHHRYPNIPFYLQVGNPYLDDNVDQHTDKLLERYEQLVDRVMQSSDMNHVYVLPQLHTLLWSNKKGV | not soluble
5 | MAKKNNKTKIQKPEAALQTDVAQITATGRVIAEHPSNFITPQKMRALFEDAESGDIRAQHELFADIEERDSDIAANMGTRKRALLTLNWRVAPPRNATPEEEKLSDQAYEMMDSLPTLEDLIMDLMDAVGHGFSALEVEWVFSDGLYLPRNFIHRPQSWFKWDKDNGLLLRTRENPEGEALWPLGWVVHTQKSRSVQQARNGLFRTLSWLYMFKHYAVHDFAEFLELYGMPIRIGKYGAGATKEEKNTLLRAVAEIGHNAAGIMPEGMEIELHNAANGTTATSNPFLQMADWCEKSAARLILGQTLTSGADGKSSTNALGNIHNEVRRDLLVSDAKQVAQTITSQIIGPFLQINYPHADPNRVPKFEFDTREPKDIAVFADAIPKLVDVGVQIPESWVRDKLVIPDVQEGEAVLVRQVPDNPVNRTALAALSAHTVPSKATGRHQEILDGALDDALVEPDFNSQLNPMVRQAVAALNACNSYEEADAALNALYPNLDNAKLRTYMQQALFISDILGQDHA | soluble
6 | MAKQRVFIAGHRGMVGSAIRRQLEQRGDVELVLRTRDELNLLDSRAVHDFFASERIDQVYLAAAKVGGIVANNTYPADFIYQNMMIESNIIHAAHQNDVNKLLFLGSSCIYPKLAKQPMAESELLQGTLEPTNEPYAIAKIAGIKLCESYNRQYGRDYRSVMPTNLYGPHDNFHPSNSHVIPALLRRFHEATAQKAPDVVVWGSGTPMREFLHVDDMAAASIHVMELAHEVWLENTQPMLSHINVGTGVDCTIRELAQTIAKVVGYKGRVVFDASKPDGTPRKLLDVTRLHQLGWYHEISLEAGLASTYQWFLENQDRFRG | soluble
7 | MAKRYVGSCTTVLVGKKASIDGSTIIARNEDGESPLHPQKFVYVKPEDQPRHYQSVLSKFAIDLPADPLGYTATPEAEDGHGIWAAAGINSENIAMTSTETITTNSRVLGVDPLVAAGIGEEDMPTIVLPYIHSARDGVQRLGSLLEQYGTYESNGIAFADKDEVWYFESIGGHHWAAIRIPDDAYVVAPNRFNITDFDFASDDTMSSADLRDLIETYHLNPDTEGYNLRHIFGSATIKDTRYNNPRTWYGQKYFNPEFNTTPIDQDLPFICRTSKKISIEDVKFVESSHYENTPYDVYGTTGTPAQKKLYRPIGINRNQELHILQIRNNVPAAVAGIHWLAFGPNTFNAVVPFYANVNDTPAAYRETGDKFDVTKMYWLSNLLATFGDYDFSLFKDQEDVFEQKTVAACRHLQLTTDEAVKDAKDIGDHLTAANEQMATIAMANSNELLGQMVAAAAPKMKLQFTLHDLEHHHHHH | not soluble
8 | MAKSYDYQSAFDIIGPVMMGPSSSHTAGAVKIGNSARAVLGDMPKHIEIRYYESFAKTHQGHGTDVAIVGGAMGYSTFDSRIKSSLDIAKDENITIDIIEDEGESIGQHPNCAYIKANTKDGRYIEVIGISIGGGTIKLKGINVNGLNVELNHGLPMLVIDGNMNKAKINHLINDLSDMDLDLGEELIETNDNEGLVVFPLNKAISESALNIIKDKHSDLNVSYIK | not soluble
9 | MAKTLYEKLFDAHVVYEAQNETPLLYIDRHLVHEVTSPQAFDGLRAHGRQVRQPGKTFATMDHNVSTQTKDINASGEMARIQMQELIKNCKEFGVELYDLNHPYQGIVHVMGPEQGVTLPGMTIVCGDS | not soluble
10 | MAKVLCVLYDDPVDGYPKTYARDDLPKIDHYPGGQTLPTPKAIDFTPGQLLGSVSGELGLRKYLESNGHTLVVTSDKDGPDSVFERELVDADVVISQPFWPAYLTPERIAKAKNLKLALTAGIGSDHVDLQSAIDRNVTVAEVTYCNSISVAEHVVMMILSLVRNYLPSHEWARKGGWNIADCVSHAYDLEAMHVGTVAAGRIGLAVLRRLAPFDVHLHYTDRHRLPESVEKELNLTWHATREDMYPVCDVVTLNCPLHPETEHMINDETLKLFKRGAYIVNTARGKLCDRDAVARALESGRLAGYAGDVWFPQPAPKDHPWRTMPYNGMTPHISGTTLTAQARYAAGTREILECFFEGRPIRDEYLIVQGGALAGTGAHSYSKGNATGGSEEAAKFKKAV | soluble
11 | MALLQISEPGLSAAPHQRRLAAGIDLGTTNSLVATVRSGQAETLPDHEGRHLLPSVVHYQQQGHTVGYAARDNAAQDTANTISSVKRMMGRSLADIQTRYPHLPYRFKASVNGLPMIDTAAGLLNPVRVSADILKALAARASESLSGELDGVVITVPAYFDDAQRQGTKDAARLAGLHVLRLLNEPTAAAIAYGLDSGKEGVIAVYDLGGGTFDISILRLSRGVFEVLATGGDSALGGDDFDHLLADYIREQAGIADRSDNRVQRELLDAAIAAKIALSDADTVRVNVAGWQGEITREQFNDLISALVKRTLLACRRALKDAGVEPQDVLEVVMVGGSTRVPLVRERVGEFFGRTPLTAIDPDKVVAIGAAIQADILVGNKPDSEMLLLDVIPLSLGLETMGGLVEKVIPRNTTIPVARAQDFTTFKDGQTAMSIHVMQGERELVQDCRSLARFALRGIPPLPAGGAHIRVTFQVDADGLLSVTAMEKSTGVEASIQVKPSYGLTDGEIASMIKDSMSFAEQDVKARMLAEQKVEAARVLESLTGALTADAALLSAAERQCIDDAAAHLSAVAQGDDVDAIEQAIKNVDKQTQEFAARRMDQSVRRALKGHSVDEV | not soluble
12 | MALMTMVQALNRALDEEMAKDPRVVVLGEDVGKRGGVFLVTEGLLQKYGPDRVMDTPLSEAAIVGAALGMAAHGLRPVAEIQFADYIFPGFDQLVSQVAKLRYRSGGQFTAPLVVRMPSGGGVRGGHHHSQSPEAHFVHTAGLKVVAVSTPYDAKGLLKAAIRDEDPVVFLEPKRLYRSVKEEVPEEDYTLPIGKAALRREGKDLTLIGYGTVMPEVLQAAAELAKAGVSAEVLDLRTLMPWDYEAVMNSVAKTGRVVLVSDAPRHASFVSEVAATIAEDLLDMLLAPPIRVTGFDTPYPYAQDKLYLPTVTRILNAAKRALDY | soluble
